What was measured:
[1] = target: VEGFR2 and αvβ3 integrin on HUVEC; experiment: flow cytometry titration on HUVEC (VEGFR2 and αvβ3 integrin), anti-FLAG detection
[2] = target: U87MG human glioblastoma cells; experiment: flow cytometry titration on U87MG cells, anti-FLAG detection
[3] = target: VEGFR2 and αvβ3 integrin on HUVEC; experiment: cell-based or functional assay
[4] = target: VEGFR2 and αvβ3 integrin on SVR angiosarcoma cells (murine); experiment: flow cytometry titration on SVR murine angiosarcoma cells (VEGFR2 and αvβ3 integrin), anti-FLAG detection
[5] = target: T1, recombinant human VEGFR2 extracellular domain (human, UniProt P35968 20-764); experiment: yeast surface display of individual clones, soluble VEGFR2
T1 construct: extracellular domain; Bought (Calbiochem); also called KDR; Flk-1
T1 sequence (P35968 20-764): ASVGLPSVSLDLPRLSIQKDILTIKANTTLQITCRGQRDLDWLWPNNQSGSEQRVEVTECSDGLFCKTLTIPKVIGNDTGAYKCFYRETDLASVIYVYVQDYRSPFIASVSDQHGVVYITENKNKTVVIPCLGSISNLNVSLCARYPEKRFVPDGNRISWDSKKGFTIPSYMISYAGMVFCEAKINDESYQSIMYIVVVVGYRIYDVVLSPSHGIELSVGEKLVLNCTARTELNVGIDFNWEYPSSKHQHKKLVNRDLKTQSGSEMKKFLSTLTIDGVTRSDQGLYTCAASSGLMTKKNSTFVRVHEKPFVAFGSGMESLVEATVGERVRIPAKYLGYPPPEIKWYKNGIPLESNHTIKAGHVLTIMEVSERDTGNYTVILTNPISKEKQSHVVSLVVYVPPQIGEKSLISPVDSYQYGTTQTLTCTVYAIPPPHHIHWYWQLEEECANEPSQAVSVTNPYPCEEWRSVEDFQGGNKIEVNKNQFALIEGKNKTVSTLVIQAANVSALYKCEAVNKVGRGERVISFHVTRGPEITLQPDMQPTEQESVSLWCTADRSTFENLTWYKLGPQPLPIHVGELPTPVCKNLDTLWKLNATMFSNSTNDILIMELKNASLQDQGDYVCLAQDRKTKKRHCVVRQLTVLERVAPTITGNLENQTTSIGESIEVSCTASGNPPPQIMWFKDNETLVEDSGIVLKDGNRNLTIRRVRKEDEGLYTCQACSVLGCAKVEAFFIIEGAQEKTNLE

Binder	Kd [1]	Kd [2]	inhibition of VEGF-induced autophosphorylation of VEGFR-2 in HUVEC, in the presence of vitronectin [3]	Kd [4]	binding result [5]
scVEGFrgd-7H (ligand) EVVKAMDVYQRSYCHPIETLVDIFQEYPDEIEYIFKPSCVPLMRCGGCCNDAGLECVPTEESNITMQIMRIKPHQGQHIGEMSFLQHNKCECRPKKDGSTSGSGKSSEGKGEVVKFMDVYQRSYCHPIETLVDIFQEYPDEIEYAFKPSCVPLMRCGGCCNDEGLECVPTEESNITMQIMRPGGRGDSAYHIGEMSFLQHNKCECRPKKDTR	12 nM	15.6 nM	–	18 nM	–
scVEGFrgd-7P (ligand) EVVKAMDVYQRSYCHPIETLVDIFQEYPDEIEYIFKPSCVPLMRCGGCCNDAGLECVPTEESNITMQIMRIKPHQGQHIGEMSFLQHNKCECRPKKDGSTSGSGKSSEGKGEVVKFMDVYQRSYCHPIETLVDIFQEYPDEIEYAFKPSCVPLMRCGGCCNDEGLECVPTEESNITMQIMRPASRGDSPPHIGEMSFLQHNKCECRPKKDTR	45 nM	29 nM	–	31 nM	–
scVEGFrgd-7B-K (ligand, built from the parts; F17A, E64A and I46A are kept because the RGD libraries were made from scVEGFmut) EVVKAMDVYQRSYCHPIETLVDILQEYPDEIEYIFKPSCVPLMRCGGCCNDAGLECVPTEESNITMQIMRIKPYQGQHIGEMSFLQHNKCECRPKKDGSTSGSGKSSEGKGEVVRFMDVYQRSYCHPIETLVDIFQEYPDEIEYAFKPSCVPLMRCGGCCNHEGLECVPTEESNITMQIMRPHDRGDAGVHIGEMSFLQHNKCECRPKED	–	–	–	–	binds

Now from value to binder:

Kd [1]	Kd [2]	inhibition of VEGF-induced autophosphorylation of VEGFR-2 in HUVEC, in the presence of vitronectin [3]	Kd [4]	binding result [5]	Binder
6 nM	13.9 nM	80%	37 nM	–	scVEGFrgd-7I (ligand) EVVKAMDVYQRSYCHPIETLVDIFQEYPDEIEYIFKPSCVPLMRCGGCCNDAGLECVPTEESNITMQIMRIKPHQGQHIGEMSFLQHNKCECRPKKDGSTSGSGKSSEGKGEVVKFMDVYQRSYCHPIETLVDIFQEYPDEIEYAFKPSCVPLMRCGGCCNDEGLECVPTEESNITMQIMRPSVRRGDSPASHIGEMSFLQHNKCECRPKKDTR
–	–	–	–	binds	scVEGFrgd-7B-A (ligand, built from the parts; F17A, E64A and I46A are kept because the RGD libraries were made from scVEGFmut) EVVKAMDVYQRSYCHPIETLVDILQEYPDEIEYIFKPSCVPLMRCGGCCNDAGLECVPTEESNITMQVMRIKPYRGQHIGEMSFLQHNKCECRPKKDGSTSGSGKSSEGKGEVVKFMDVYQRSYCHPIETLVDIFQEYPDEIEYAFKPSCVPLMRCGGCCNNEGLECVPTEESNITMQIMRPHDRGDAGVHIGEMSFLQHNKCECRPRKD
–	–	–	–	binds	scVEGFrgd-7B-C (ligand, built from the parts; F17A, E64A and I46A are kept because the RGD libraries were made from scVEGFmut) EVVKAMDVYQGSYCHPIETLVDILQEYPDEIEYIFKPSCVPLMRCGGCCNNAGLECVPTEESNITMQIMRIKPYQGQHIGEMSFLQHNKCECRPKKGGSTSGSGKSSEGKGEVVKFMDVYQRSYCHPIETLVDIFQEYPDEIEYAFKPSCVPLMRCGGCCNHEGLECVPTEESNITMRIMRPHDRGDAGVHIGEMSFLQHNKCECRPKRD
